Six molecules from patent publication US20220387557A1 (OXFORD UNIVERSITY INNOVATION, published 2022) can be followed below.

Experiment [1] has as its target T1, Fc tagged human TNFR1 (Sino Biological) (human, UniProt P19438 22-211, limits assumed).
T1 construct: Bought reagent; also called hTNFR1; hTNFR1-Fc; not shown: Fc tag of the bought protein
T1 sequence (looked up): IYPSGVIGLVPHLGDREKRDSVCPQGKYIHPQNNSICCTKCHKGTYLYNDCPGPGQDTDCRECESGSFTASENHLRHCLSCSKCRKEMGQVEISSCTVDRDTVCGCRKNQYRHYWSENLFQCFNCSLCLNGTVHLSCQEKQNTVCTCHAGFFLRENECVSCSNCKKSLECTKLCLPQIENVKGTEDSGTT
The experiment in a line: SPR, Biacore T200 single cycle kinetics, receptor-Fc captured on Protein A chip, TNF 1.67-15 nM. As for the experimental part:
(§1) Single cycle kinetic analysis was performed using a Biacore T200 (serial no. 1909913) running Biacore T200 Evaluation Software V2.0.1 (Uppsala, Sweden). All experiments were run at 25° C. with HBS-P+ running buffer (pH 7.4) (GE Healthcare, Little Chalfont, UK).
(§2) Due to the limit in the number of available flow cells for analysis (three Fc per analysis, Fc2, Fc3 and Fc4, with Fc1 always being used as blank reference for non-specific subtraction), receptor binding was assessed in two separate overlapping runs using either: hTNFR1 (Fc2), hTNFR2 (Fc3) and mTNFR1 (Fc4), or; hTNFR1 (Fc2), […] and mTNFR2 (Fc4). Receptors were diluted in running buffer to a concentration of ˜4 μg/mL and at the start of each cycle loaded onto Fc2, Fc3 and Fc4 of a Protein A chip (GE Healthcare, Little Chalfont, UK) at a flow rate of 10 μL/min to give an RU of 40-100. The surface was then allowed to stabilise. Single cycle kinetic data was obtained at a flow rate of 45 μL/min. […] The association phase for the three injections of increasing concentrations of TNF was monitored for 240 seconds and a single dissociation phase was measured for 2700 seconds following the last injection of TNF. Regeneration of the Protein A surface was conducted using 10 mM glycine-HCl pH 1.5. The signal from the reference channel Fc1 (no receptor) was subtracted from that of Fc2, Fc3 and Fc4 to correct for differences in non-specific binding to a reference surface.
In general terms: Surface plasmon resonance follows binding to a sensor surface in real time, without labels.

Experiment [2] has as its target T2, Fc tagged mouse TNFR1 (Sino Biological) (mouse, UniProt P25118 22-212, limits assumed).
T2 construct: Bought reagent; also called mTNFR1; mTNFR1-Fc; not shown: Fc tag of the bought protein
T2 sequence (looked up): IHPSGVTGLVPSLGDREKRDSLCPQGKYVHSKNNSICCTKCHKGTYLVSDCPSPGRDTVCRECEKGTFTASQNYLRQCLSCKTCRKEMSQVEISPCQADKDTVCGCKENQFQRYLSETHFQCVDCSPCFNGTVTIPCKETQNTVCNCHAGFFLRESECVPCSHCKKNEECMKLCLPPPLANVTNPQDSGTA
The description is as above. As to the method: as §1, §2

The target in experiment [3] is T3, Fc tagged mouse TNFR2 (Sino Biological) (mouse, UniProt P25119 23-258).
T3 construct: Bought reagent; also called mTNFR2; mTNF2; not shown: Fc tag of the bought protein
T3 sequence (looked up): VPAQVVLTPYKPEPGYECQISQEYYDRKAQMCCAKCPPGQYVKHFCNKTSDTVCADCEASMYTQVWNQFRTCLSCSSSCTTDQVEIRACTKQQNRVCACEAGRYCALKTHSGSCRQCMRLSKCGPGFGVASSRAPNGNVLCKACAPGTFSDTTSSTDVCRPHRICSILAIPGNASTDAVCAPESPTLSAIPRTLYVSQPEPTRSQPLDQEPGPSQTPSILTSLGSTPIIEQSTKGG
As to the kind of experiment: SPR (Biacore T200) single cycle kinetics, Fc-tagged receptor captured on Protein A chip, TNF protein as analyte at 1.67-15 nM. As for the experimental part: as §1, §2
(§3) Controls were used to ensure the integrity of the receptors during the Biacore run.

For experiment [4], the target named is T1, Fc tagged human TNFR1 (Sino Biological). The experiment in a line: SPR, Biacore T200 multi cycle kinetics, receptor-Fc captured on Protein A chip, TNF 1.25-40 nM, 1:1 model. As to the method: (§4) Multi cycle kinetics analysis of binding to hTNFR1, hTNFR2, mTNFR1 and mTNFR2 was performed on the 10 lead variants using a Biacore T200 (serial no. 1909913) instrument running Biacore T200 Evaluation Software V3.0.1 (Uppsala, Sweden) to characterise further the binding to these receptors.
(§5) As with the single cycle kinetics, receptor binding was assessed in two separate experiments. In the first set of experiments binding to hTNFR1 (Fc2), hTNFR2 (Fc3) and mTNFR1 (Fc4) was assessed. In the second set of experiments the extent of mTNF2 (Fc4) binding was assessed using hTNFR1 (Fc2) and hTNFR2 (Fc3) as controls. All receptors were diluted in running buffer to a concentration of ˜4 μg/mL and at the start of each cycle loaded onto Fc2, Fc3 and Fc4 of a Protein A CM5 chip and captured at a flow rate of 10 μL/min to give an RU of ˜40-100. The surface was then allowed to stabilise. All kinetic data was obtained using a flow rate of 75 μl/min to minimise any potential mass transfer effects. […] The association phase of TNF was monitored for 280 seconds and the dissociation phase was measured for 2100 seconds. […] Regeneration of the Protein A surface was conducted using two injections of 10 mM glycine-HCL pH 1.5 at the end of each cycle. The signal from the reference channel Fc1 was subtracted from that of Fc2, Fc3 and Fc4 to correct for differences in non-specific binding to a reference surface, and a global Rmax parameter was used in the 1-to-1 binding model.

The target in experiment [5] is T2, Fc tagged mouse TNFR1 (Sino Biological). Described as above. As for the experimental part:
as §4, §5

For experiment [6], the target named is T4, Fc tagged human TNFR2 (Sino Biological) (human, UniProt P20333 23-257).
T4 construct: Bought reagent; also called hTNFR2; hTNFR2-Fc; not shown: Fc tag of the bought protein
T4 sequence (looked up): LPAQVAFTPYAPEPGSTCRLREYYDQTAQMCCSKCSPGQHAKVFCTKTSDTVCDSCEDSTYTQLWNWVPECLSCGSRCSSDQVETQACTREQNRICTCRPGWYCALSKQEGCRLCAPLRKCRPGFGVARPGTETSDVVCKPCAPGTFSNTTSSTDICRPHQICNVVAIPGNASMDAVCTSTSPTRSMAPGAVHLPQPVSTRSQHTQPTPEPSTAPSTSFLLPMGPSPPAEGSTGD
As to the kind of experiment: SPR (Biacore T200) single cycle kinetics, Fc-tagged receptor captured on Protein A chip, TNF protein as analyte at 1.67-15 nM. As for the experimental part: as §1, §2, §3

The target of experiment [7] is T1, Fc tagged human TNFR1 (Sino Biological). As to the kind of experiment: SPR, Biacore single cycle kinetics, stability study, after 1 year at -20° C. As for the experimental part: as §2
(§6) At day zero (prior to freezing) and following thawing on ice after 3 months and 1 year the following assays were performed: [0341] SDS-PAGE [0342] OD280 nm [0343] Single cycle Biacore for binding to hTNFR1, hTNFR2 and mTNFR1

The target in experiment [8] is T2, Fc tagged mouse TNFR1 (Sino Biological). The description is as above. As for the experimental part: as §2, §6
Experiment [9] concerns the target T1, Fc tagged human TNFR1 (Sino Biological). The experiment in a line: SPR, Biacore single cycle kinetics, stability study, after 1 year at -80° C. As to the method: as §2, §6
The target in experiment [10] is T2, Fc tagged mouse TNFR1 (Sino Biological). The experiment is described as above. As to the method:
as §2, §6

For experiment [11], the target named is T1, Fc tagged human TNFR1 (Sino Biological). As to the kind of experiment: SPR, Biacore single cycle kinetics, stability study, before freezing (t=0). As for the experimental part:
as §2, §6

Experiment [12] deals with T2, Fc tagged mouse TNFR1 (Sino Biological). The experiment is described as above. As for the experimental part: as §2, §6

B1: TNF mutein B4 (ligand)
chain: VRSSSHTPSDKPVAHVVANPQAEGQLQWLNRRANALLANGVELRDNQLVVPSEGLYLIYSQVLFKGQGCPSTHVLLTHTISRISESHDGKVNLLSAIKSPCQRETPEGAEAKPWYEPIYLGGVFQLEKGDRLSAEINRPDYLDFAESGQVYFGIIAL
notes: Human TNF mutein, SESHDG at positions 84-89; not shown: C-terminal FLAG tag and His6 tag from vector pANT65
With B1, the Kd in [1] stood at 0.0195 nM; in [2], 0.132 nM; in experiment [4], 0.11 nM; in experiment [5] it was 0.153 nM. Further, in experiment [3], the binding result is recorded as “no binding (tested: 15 nM)”.

B2: TNF mutein F3 (ligand)
chain: VRSSSRTPSDKPVAHVVANPQAEGQLQWLNRRANALLANGVELRDNQLVVPSEGLYLIYSQVLFKGQGCPSTHVLLTHTISRITTTYRLKVNLLSAIKSPCQRETPEGAEAKPWYEPIYLGGVFQLEKGDRLSAEINRPDYLDFAESGQVYFGIVAL
notes: Human TNF mutein, TTTYRL at positions 84-89; not shown: C-terminal FLAG tag and His6 tag from vector pANT65
Turning to B2, the Kd in [1] came to 0.635 nM; in experiment [2] it was 7.35 nM; in [7], 0.0271 nM; in experiment [8] it was 0.527 nM; in experiment [4], 0.462 nM; in [5] it was 5.08 nM. Further, the Kd worked out at 0.023 nM in experiment [9], 0.398 nM in experiment [10], 0.012 nM in experiment [11] and 0.11 nM in experiment [12]. Moreover, in experiment [6], the binding result is recorded as “no binding (tested: 15 nM)”.

B3: TNF mutein B6 (ligand)
chain: VRSSSRTPSDKPVAHVVANPQAEGQLQWLNRRANALLANGVELRDNQLVVPSEGLYLIYSQVLFKGQGCPSTHVLLTHTISRITGTYSYKVNLLSAIKSPCQRETPEGAEAKPWYEPIYLGGVFQLEKGDRLSAEINRPDYLDFAESGQVYFGIIAL
notes: Human TNF mutein, TGTYSY at positions 84-89; not shown: C-terminal FLAG tag and His6 tag from vector pANT65
Turning to B3, the dissociation constant Kd in experiment [1] was determined as 0.0169 nM; in experiment [2] it was 0.304 nM; in experiment [7], 0.0526 nM; in experiment [8], 0.711 nM; in experiment [4] it was 0.339 nM; in [5] it was 0.59 nM. Besides, the Kd in experiment [9] turned out to be 0.0667 nM; in [10], 0.0474 nM; in experiment [11] it was 0.0969 nM; in [12] it was 0.067 nM. Besides, the binding result in experiment [6] and in [3] was “no binding (tested: 15 nM)” each time.

B4: TNF mutein B5 (ligand)
chain: VHSSSRTPSDKPVAHVVANPQAEGQLQWLNRRANALLANGVELRDNQLVVPSEGLYLIYSQVLFKGQGCPSTHVLLTHTISRITGTYVDKVNLLSAIKSPCQRETPEGAEAKPWYEPIYLGGVFQLEKGDRLSAEINRPDYLDFAESGQVYFGIIAL
notes: Human TNF mutein, TGTYVD at positions 84-89; not shown: C-terminal FLAG tag and His6 tag from vector pANT65
Turning to B4, the Kd in experiment [1] was found to be 0.0199 nM; in experiment [2] it was 0.128 nM; in experiment [7], 0.0493 nM; in experiment [8] it was 0.115 nM; in experiment [4], 0.0591 nM; in experiment [5] it was 0.289 nM. In addition, the Kd in experiment [9] came out at 0.0446 nM; in experiment [10], 0.0977 nM; in experiment [11], 0.0355 nM; in experiment [12] it was 0.0771 nM. Further, the binding result in [6] and in experiment [3] was “no binding (tested: 15 nM)” in each case.

B5: TNF mutein C4 (ligand)
chain: VRSSSRTPSDKPVAHVVANPQAEGQLQWLNRRANALLANGVELRDNQLVVPSEGLYLIYSQVLFKGQGCPSTHVLLTHTISRISHSVEGKVNLLSAIKSPCQRETPEGAEAKPWYEPIYLGGVFQLEKGDRLSAEINRPDYLDFAESGQVYFGIIAL
notes: Human TNF mutein, SHSVEG at positions 84-89; not shown: C-terminal FLAG tag and His6 tag from vector pANT65
Turning to B5, the Kd in [1] was determined as 0.0129 nM; in [2], 0.0323 nM; in experiment [4], 0.0306 nM; in experiment [5] it was 0.208 nM. The binding result in [6] and in experiment [3] was “no binding (tested: 15 nM)” each time.

B6: mouse TNF (mTNF), soluble protein expressed from pANT65 (ligand, UniProt P06804 80-235, looked up)
chain: LRSSSQNSSDKPVAHVVANHQVEEQLEWLSQRANALLANGMDLKDNQLVVPADGLYLVYSQVLFKGQGCPDYVLLTHTVSRFAISYQEKVNLLSAVKSPCPKDTPEGAELKPWYEPIYLGGVFQLEKGDQLSAEVNLPKYLDFAESGQVYFGVIAL
notes: not shown: C-terminal FLAG tag and His6 tag from vector pANT65
On to B6, for which the binding result in experiment [6] and in experiment [3] was “binds” each time.

Broadly, the Kd is the equilibrium constant for the complex coming apart.
